Results published in patent publication US20090291081A1 (AbbVie / Abbott, published 2009).
Several values for one entry are separate records, joined by “and”; a condition that tells them apart may be missing. Equal entries are not always repeated.

T1: human IL-1α (human, UniProt P01583 113-271)
T1 sequence (looked up): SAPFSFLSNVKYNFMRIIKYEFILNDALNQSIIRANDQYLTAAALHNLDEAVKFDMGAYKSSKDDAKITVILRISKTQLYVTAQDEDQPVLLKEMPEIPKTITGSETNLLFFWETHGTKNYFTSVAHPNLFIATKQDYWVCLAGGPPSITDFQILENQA

T2: human IL-1α (human, UniProt P01583 113-271)
T2 construct: also called IL-1alpha; hIL-1α
T2 sequence (looked up): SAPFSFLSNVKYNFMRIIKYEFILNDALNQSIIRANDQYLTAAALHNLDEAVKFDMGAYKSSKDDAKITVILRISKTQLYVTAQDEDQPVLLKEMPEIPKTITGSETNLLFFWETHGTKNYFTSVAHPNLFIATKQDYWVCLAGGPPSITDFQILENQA


Columns and labels:
human IL-1α [1] = molecular target: T1, human IL-1α; assay: cell-based or functional assay
human IL-1β [2] = molecular target: T3, human IL-1β (human, UniProt P01584 117-269); assay: cell-based or functional assay
human IL-1β [3] = molecular target: T3, human IL-1β; assay: cell-based or functional assay; remark: listed apart in the source
human IL-1α [4] = molecular target: T1, human IL-1α; assay: cell-based or functional assay; remark: listed apart in the source
human IL-1β [5] = molecular target: T3, human IL-1β; assay: cell-based or functional assay; remark: listed apart in the source
human IL-1α [6] = molecular target: T1, human IL-1α; assay: cell-based or functional assay; remark: listed apart in the source
human IL-1α [7] = molecular target: T2, human IL-1α; assay: Table 62 IC50; RBA presumed
human IL-1α [8] = molecular target: T2, human IL-1α; assay: Table 62 KD; BIAcore presumed
human IL-1α [9] = molecular target: T2, human IL-1α; assay: cell-based or functional assay; remark: listed apart in the source

Binder	MRC5 IL-1α (human IL-1α [4])	MRC5 IL-1β (human IL-1β [5])	IC50 (human IL-1α [7])	Kd (human IL-1α [8])	ND50 (human IL-1α [9])	other results
Fab ABT1-96/ABT2-42 (Fab, V domains shown) VH: EVQLLESGGGLVQPGGSLRLSCAASGFTFNQYNMFWVRQAPGKGLEWVSVISGSGRFTYADSVKGRFTISRDNSKNTLYLQMNSLRAEDTAVYYCAKGWWRRDPPFDYWGQGTLVTVSS VL: DIQMTQSPSSLSASVGDRVTITCRASQYIEKWLTWYQQKPGKAPTLLIYRGSLLQSGVPRFSGSGSGTDFTLTISSLQPEDFATYYCQQTEYWPFTFGQGTKVEIKR						Fab IL-1α ND10 (human IL-1α [1]): 3 nM; Fab IL-1β ND10 (human IL-1β [2]): 10 nM
Fab ABT1-96/ABT2-13 (Fab, V domains shown) V domain 1: EVQLLESGGGLVQPGGSLRLSCAASGFTFNQYNMFWVRQAPGKGLEWVSVISGSGRFTYADSVKGRFTISRDNSKNTLYLQMNSLRAEDTAVYYCAKGWWRRDPPFDYWGQGTLVTVSS V domain 2: EVQLLESGGGLVQPGGSLRLSCAASGFTFRDYVMYWARQAPGKGLEWVSRIDPMGSSTYYADSVKGRFTISRDNSKNTLYLQMNSLRAEDTAVYYCAKPEGNFDYWGQGTLVTVSS						Fab IL-1α ND10 (human IL-1α [1]): 0.9 nM; Fab IL-1β ND10 (human IL-1β [2]): 80 nM
ABT2-108-538x/ABT1-122-511 hu IgG1/K wt (bispecific antibody, V domains shown) VH: EVQLLESGGGLVQPGGSLRLSCAASGFTFADEGMMWVRQAPGKGLEWVSRITYSGKNTYYADSVKGRFTISRDNSKNTLYLQMNSLRAEDTAVYYCAKYTGRILGHHLFDYWGQGTLVTVSS VL: DIQMTQSPSSLSASVGDRVTITCRASQPIWTELNWYQQKPGKAPKLLIYGSSSLQRGVPSRFSGSGSGTDFTLTISSLQPEDFATYYCKQFAYFPATFGQGTKVEIKR	259 nM	0.009 nM				IL-1β IC50 (human IL-1β [3]): 0.006 nM and 0.009 nM and 0.01 nM
ABT2-108-538x/ABT1-95-A3 hu IgG1mut 234, 235/K (bispecific antibody, V domains shown) VH: EVQLLESGGGLVQPGGSLRLSCAASGFTFADEGMMWVRQAPGKGLEWVSRITYSGKNTYYADSVKGRFTISRDNSKNTLYLQMNSLRAEDTAVYYCAKYTGRILGHHLFDYWGQGTLVTVSS VL: DIQMTQSPSSLSASVGDRVTITCRASKPGVRNMRWYQQKPGKAPKLLIYSVSYLEPGVPSRFSGSGSGTDFTLTISSLQPEDFATYHCLQGYRWPPTFGQGTKVEIKR	0.032 nM	0.023 nM				IL-1α IC50 (human IL-1α [6]): 0.095 nM; IL-1β IC50 (human IL-1β [3]): 0.035 nM
ABT2-108-538x/ABT1-122-750x hu IgG1/K wt (bispecific antibody, V domains shown) VH: EVQLLESGGGLVQPGGSLRLSCAASGFTFADEGMMWVRQAPGKGLEWVSRITYSGKNTYYADSVKGRFTISRDNSKNTLYLQMNSLRAEDTAVYYCAKYTGRILGHHLFDYWGQGTLVTVSS VL: DIQMTQSPSSLSASVGDRVAITCSASQHIWTEISWYQQKPGKAPKLLIYGSASRQKGVPSRFSGSGSGTDFTLTISSLQPEDFATYYCKQFAYFPNTFGQGTKVEIKR	75 nM	0.0094 nM				IL-1β IC50 (human IL-1β [3]): 0.005 nM and 0.008 nM and 0.01 nM
ABT2-108-521/ABT1-122 hu IgG1/K wt (bispecific antibody, V domains shown) VH: EVQLLESGGGLVQPGGSLRLSCAASGFTFAEYTMMWVRQAPGKGLEWVSRIGQDGKNTYYADSVKGRFTISRDNSKNTLYLQMNSLRAEDTAVYYCAKYTGRILGHHLFDYWGQGTLVTVSS VL: DIQMTQSPSSLSASVGDRVTITCRASQPIWTELNWYQQKPGKAPKLLIYGSSSLQSGVPRFSGSGSGTDFTLTISSLQPEDFATYYCQQFAYFPATFGQGTKVEIKR	1000 nM	1 nM				IL-1α IC50 (human IL-1α [6]): 1000 nM; IL-1β IC50 (human IL-1β [3]): 0.2 nM and 0.4 nM
ABT2-65-17/ABT1-141-25 hu IgG1/K wt (bispecific antibody, V domains shown) VH: EVQLLESGGGLVQPGGSLRLSCVASGFTFEDYQMGWVRQAPGKGLEWVSSISAMGNRTYYADSVKGRFTISRDDSKNTLYLQMNSLRAEDTAVYYCAQNLVRLGRSRWMFDYWGQGTLVTVSS VL: DIQMTQSPSSLSASVGDRVTITCRASQWIQKQLAWYQQKPGKAPKLLIYSSSYLQSGVPSRFSGSGSGTDFTLTISSLQPEDFATYYCQQHLRVPMTFGQGTKVEIKR	400 nM	0.975 nM				IL-1α IC50 (human IL-1α [6]): 400 nM; IL-1β IC50 (human IL-1β [3]): 1 nM
ABT2-65-166/ABT1-95-A5 hu IgG1mut 234, 235/K (bispecific antibody, V domains shown) VH: EVQLLESGGGLVQPGGSLRLSCAASGFTFEDYQMGWVRQAPGKGLEWVSSISAMGGRTYYADSVKGRFTISRDNSKNTLYLQMNSLRAEDTAVYYCAQNLVRLGRSRWMFDYWGQGTLVTVSS VL: DIQMTQSPSSLSASVGDRVTITCRASRTPVRNLRWYQQKPGKAPKLLIYSRSFLEPGVPSRFSGSGSGTDFTLTISSLQPEDFATYHCLQGYRWPPTFGQGTKVEIKR	0.014 nM	0.197 nM				IL-1α IC50 (human IL-1α [6]): 0.015 nM; IL-1β IC50 (human IL-1β [3]): 0.145 nM
ABT1-95-10 (other, VK dAb) VL: DIQMTQSPSSLSASVGDRVTITCRASQPIQGNLRWYQQKPGKAPKLLIYSSSYLERGVPSRFSGSGSGTDFTLTISSLHPEDLATYHCQQGYRWPVTFGQGTKVEIKR			0.8 nM	0.9 nM		
ABT1-95-4 (other, VK dAb) VL: DIQMTQSPSSLSASVGDRVTITCRASQPIVRNLRWYQQKPGKAPKLLIYSSSYLQSGVPSRFSGSGSGTDFTLTISSLQPEDFATYHCQQGYRWPVTFGQGTKVEIKR			0.7 nM	1.5 nM	2 nM	
ABT1-95-14 (other, VK dAb) VL: DIQMTQSPSSLSASVGDRVTITCRASQPIVKNLRWYQQKPGKAPKLLIYSSSYLERGVPSRFSGSGSGTDFTLTISSLQPEDFATYHCQQGYRWPVTFGQGTKVEIKR			0.3 nM	1.2 nM	0.25 nM	
ABT1-95-9 (other, VK dAb) VL: DIQMTQSPSSLSASVGDRVTITCRASQPIQGNLRWYQQKPGKAPKLLIYSSSYLERGVPSRFSGSGSGTDFTLTISSLHPEDFATYHCQQGYRWPVTFGQGTKVEIKR			0.8 nM	1 nM		
ABT1-95-13 (other, VK dAb) VL: DIQMTQSPSSLSASVGDRVTITCRASQPIVRNLRWYQQKPGKAPKLLIYSSSYLERGVPSRFSGSGSGTDFTLTISSLQPEDFATYHCQQGYRWPVTFGQGTKVEIKR			0.3 nM	0.9 nM	0.12 nM	
ABT1-95-8 (other, VK dAb) VL: DIQMTQSPSSLSASVGDRVTITCRASQPIQGNLRWYQQKPGKAPKLLIYSSSYLERGVPSRFSGSGSGTDFTLTISSLQPEDFATYHCQQGYRWPVTFGQGTKVEIKR			0.8 nM	2.1 nM	1 nM	
ABT1-95-3 (other, VK dAb) VL: DIQMTQSPSSLSASVGDRVTITCRASQPIHGNLRWYQQKPGKAPKLLIYSSSYLQSGVPSRFSGSGSGTDFTLTISSLQPEDFATYHCQQGYRWPVTFGQGTKVEIKR			4 nM	7 nM	80 nM	
ABT1-95-15 (other, VK dAb) VL: DIQMTQSPSSLSASVGDRVTITCRASQPIVRNLRWYQQKPGKAPKLLIYSSSYLEPGVPSRFSGSGSGTDFTLTISSLQPEDFATYHCQQGYRWPVTFGQGTKVEIKR				0.4 nM		
ABT1-95-11 (other, VK dAb) VL: DIQMTQSPSSLSASVGDRVTITCRASQPIQGNLRWYQQKPGIAPKLLIYSSSYLERGVPSRFSGSGSGTDFTLTISSLHPEDLATYHCQQGYRWPVTFGQGTKVEIKR			0.9 nM	1.1 nM	0.3 nM	
ABT1-95-12 (other, VK dAb) VL: DIQMTQSPSSLSASVGDRVTITCRASQPIHGNLRWYQQKPGKAPKLLIYSSSYLESWVPSRFSGSGSGTDFTLTISSLQPEDFATYHCQQGYRWPVTFGQGTKVEIKR			0.8 nM	0.9 nM		
ABT1-95-6 (other, VK dAb) VL: DIQMTQSPSSLSASVGDRVTITCRASQPIQGNLRWYQQKPGKAPKLLIYSSSYLESGVPSRFSGSGSGTDFTLTISSLQPEDFATYHCQQGYRWPVTFGQGTKVEIKR			0.8 nM	2.1 nM	1 nM	
ABT2-108/ABT1-141 hu IgG1/K wt (bispecific antibody, V domains shown) VH: EVQLLESGGGLVQPGGSLRLSCAASGFTFAEYTMMWVRQAPGKGLEWVSRIGQDGKNTYYADSVKGRFTISRDNSKNTLYLQMNSLRAEDTAVYYCAKYTGRVGVHHLFDYWGQGTLVTSS VL: DIQMTQSPSSLSASVGDRVTITCRASQWIQKQLAWYQQKPGKAPKLLIYSSSYLQSGVPRFSGSGSGTDFTLTISSLQPEDFATYYCQQHLRVPFTFGQGTKVEIKR	1500 nM	22 nM				IL-1α IC50 (human IL-1α [6]): 1000 nM and 1500 nM and 3000 nM
Fab ABT1-122/ABT2-108 (Fab, V domains shown) VH: EVQLLESGGGLVQPGGSLRLSCAASGFTFAEYTMMWVRQAPGKGLEWVSRIGQDGKNTYYADSVKGRFTISRDNSKNTLYLQMNSLRAEDTAVYYCAKYTGRVGVHHLFDYWGQGTLVTSS VL: DIQMTQSPSSLSASVGDRVTITCRASQPIWTELNWYQQKPGKAPKLLIYGSSSLQSGVPRFSGSGSGTDFTLTISSLQPEDFATYYCQQFAYFPATFGQGTKVEIKR						Fab IL-1α ND10 (human IL-1α [1]): 3 nM; Fab IL-1β ND10 (human IL-1β [2]): 50 nM
Fab ABT1-141/ABT2-108 (Fab, V domains shown) VH: EVQLLESGGGLVQPGGSLRLSCAASGFTFAEYTMMWVRQAPGKGLEWVSRIGQDGKNTYYADSVKGRFTISRDNSKNTLYLQMNSLRAEDTAVYYCAKYTGRVGVHHLFDYWGQGTLVTSS VL: DIQMTQSPSSLSASVGDRVTITCRASQWIQKQLAWYQQKPGKAPKLLIYSSSYLQSGVPRFSGSGSGTDFTLTISSLQPEDFATYYCQQHLRVPFTFGQGTKVEIKR						Fab IL-1α ND10 (human IL-1α [1]): 10 nM; Fab IL-1β ND10 (human IL-1β [2]): 15 nM
